Tests used:
[1] = Pharmacokinetics in rats; settings: female, Lewis, rat, in vivo, sc, 500 nmol/kg; for AUC(0-inf): AUCinf
Method: Each rat was used for collection of blood samples for a maximum of 4 time points. […] The samples were centrifuged for 3 minutes at 2000×g (Eppendorf 5417R centrifuge) to obtain plasma. The plasma samples were stored at −80° C. until LC-MS/MS analysis.
LC-MS/MS analysis utilized a Waters Acquity UPLC system paired with a Waters Quattro Premier XE tandem quadrupole mass spectrometer operating in ESI positive mode. Prior to injection, K3EDTA plasma samples were processed using a Phenomenex Strata X-A solid phase extraction (SPE) plate. All plasma samples were fortified with N-Maleoyl-β-alanine, mannitol, and acetic acid. Briefly, 50 μL of plasma diluted with 50 μL of internal standard solution and 500 μL 1000:4:1.5 water:ammonium hydroxide:formic acid was mixed and loaded onto a preconditioned Strata X-A SPE plate. Aqueous and organic washes were then applied followed by elution of all analytes with 300:200:7.5 methanol:water:formic acid. The samples were evaporated until approximately 30 μL remained in all wells and 30 μL of 9:1 water:ammonium hydroxide was then added. Finally, the plate was sealed, mixed, and centrifuged prior to transfer to the 2-8° C. Acquity autosampler. Note: During EC1669 analysis, EC0470 was converted to a hydrazone product for bioanalysis. Acetone (500 μL) was added to all samples after the first evaporation step followed by sealing all wells and heating at 50° C. for one hour. After this step, the acetone was evaporated and the extraction completed as described above.
A 10 μL sample volume was applied to the Waters BEH Shield RP18 100×2.1 mm, […] UPLC column operating at a flow rate of 0.4 mL/min while being maintained at 45° C. A gradient between mobile phase A (1000:4:1.5 water:ammonium hydroxide:formic acid) and mobile phase B (acetonitrile) was used to separate the analytes. The gradient was held at 2% B for the first 30 seconds of the chromatographic run followed by increasing to 20% B by 2.5 minutes. A rapid gradient from 60-90% B is then used to clean the column prior to equilibration at 2% B to complete the 4 minute run cycle.
For EC1669 MS/MS analysis, EC1669 and its known major metabolites, EC1886 and […], were optimized and monitored. […] In all cases, internal standard response was used to generate response ratios for each analyte. When calibrated, data was regressed using MassLynx 4.1 software. The table below lists transitions for analytes and internal standards monitored for LC-MS/MS bioanalysis.

[2] = Release of aminopterin in dog hepatic cytosol; format: in vitro ADME; settings: 5% dog liver cytosol, 1 hour; for pH dependence of aminopterin release from the conjugate: pH 4.5, 6.0, 7.4, 37° C.
Method: EC2319 and EC1669 were incubated in 5% rat, dog, and human hepatic cytosol at different pH's to look at release of aminopterin from these conjugates. Liver cytosols from male Sprague-Dawley rats (Lot No. 1110428), male beagle dogs (Lot no. 1310024), and male humans (Lot No. 0710493), all containing 10 mg/mL protein, were obtained from Xenotech LLC (Lenexa, Kans.). These were diluted 20× in either 0.5 M sodium acetate buffer, pH 4.5, 0.5 M sodium acetate buffer, 6.0, or 0.5 M potassium phosphate buffer, pH 7.4 in a final volume of 500 μL. Reactions were initiated by the addition of 1 μL of either EC2319 or EC1669 and the reaction mixtures incubated at 37° C. for 1 hour. At the end of the incubation, a 100 μL aliquot was withdrawn into a cluster tube and the reaction was terminated by the addition of 5 μL of stabilizer solution (containing 8.5 mg/ml N-Maleoyl-β-alanine, 20 mg/mL mannitol and 0.075% acetic acid) and 100 μL of acetonitrile containing d5-aminopterin. The tubes were vortexed and then centrifuged at 4000 rpm for 10 minutes (Eppendorf centrifuge 5810R). 150 μL of the supernatant was transferred to 96-well plates and the acetonitrile evaporated off under nitrogen at 35° C. for 5 minutes. The extract was diluted with 50 μL of mobile phase A. The plate was vortexed on a VX-2500 multi-tube vortexer (VWR International, Radnor, Pa.) and the extract analyzed by LC-MS/MS.

[3] = Incubation with RAW264.7 cell lysates; format: in vitro ADME, mouse; settings: RAW264.7 lysate, pH 4.5, 37° C., 2 hours
Method: (§1) To 100 μL AIA rat macrophage, RAW264.7 or THP-1 FRβ cell lysates (each containing 10 million cells/mL 0.1 M sodium acetate, Ph 4.5) was added 2 μL of a 50 μM solution of EC2319 or EC1669 (Endocyte, Inc.). The solutions were incubated at 37° C. in a heat block (VWR International, Radnor, Pa.) for 2 hours. The reaction was terminated by the addition of 5 µL of stabilizer solution and 100 μL of acetonitrile containing d5-aminopterin (Endocyte, Inc.). The rest of the workup is as described above.

[4] = Incubation with THP-1 FRβ cell lysates; format: in vitro ADME, human; settings: THP-1 FRβ lysate, pH 4.5, 37° C., 2 hours
Method: as §1

[5] = Plasma protein binding by ultrafiltration, rat plasma; format: in vitro ADME; settings: 500 nM
Method: EC2319 and EC1669 plasma protein binding was evaluated by ultra filtration using VWR 30K MWCO modified PES filters. 250 μL of 500 nM EC2319 or EC1669 in K3EDTA plasma incubated at 37° C. was added to the upper filter vessel. 50 μL was immediately removed as the donor plasma sample and aliquoted into a clean 1.2 mL plate. […] An aliquot of […] plasma ultrafiltrate was then added to the 1.2 mL plate as the receiver sample. To each plasma sample, 50 μL of plasma ultrafiltrate was added, and each ultrafiltrate sample received 50 μL of plasma to mitigate matrix effects. N-Maleoyl-β-alanine, mannitol, and acetic acid were added at the end of each experiment to stabilize the samples prior to LC-MS/MS analysis.

## N=c1[nH]c(N)nc2ncc(CNc3ccc(C(=O)N[C@@H](CCC(=O)NNC(=O)OCCSSC[C@@H](NC(=O)[C@H](CCC(=O)NC[C@H](O)[C@@H](O)[C@H](O)[C@H](O)CO)NC(=O)[C@@H](CCC(=O)O)NC(=O)[C@H](CCC(=O)NC[C@H](O)[C@@H](O)[C@H](O)[C@H](O)CO)NC(=O)[C@@H](CCC(=O)O)NC(=O)[C@H](CCC(=O)NC[C@H](O)[C@@H](O)[C@H](O)[C@H](O)CO)NC(=O)CC[C@H](NC(=O)c4ccc(NCc5cnc6nc(N)[nH]c(=O)c6n5)cc4)C(=O)O)C(=O)O)C(=O)O)cc3)nc12 [EC1669, reference compound]
[1]
  Cmax: 472 nM
  Tmax: 30 min
  half-life: 27.8 min
[1]; rat plasma, EC1669 dosed SC 500 nmol/kg
  AUC(0-inf): 0.86 µM·h
[1]; AUClast, rat plasma, EC1669 dosed SC 500 nmol/kg
  AUC(0-t): 0.857 µM·h
[2]
  pH dependence of aminopterin release from the conjugate: highest at pH 4.5
[3]
  aminopterin release: greater from EC1669 than from EC2319
[4]
  aminopterin release: greater from EC1669 than from EC2319
[5]
  plasma protein binding: high plasma protein binding

## COC(=O)[C@H](CSSC(C)(C)[C@H](NC(=O)[C@H](CCC(=O)NC[C@H](O)[C@@H](O)[C@H](O)[C@H](O)CO)NC(=O)[C@H](CCC(=O)O)NC(=O)[C@H](CCC(=O)NC[C@H](O)[C@@H](O)[C@H](O)[C@H](O)CO)NC(=O)[C@H](CCC(=O)O)NC(=O)[C@H](CCC(=O)NC[C@H](O)[C@@H](O)[C@H](O)[C@H](O)CO)NC(=O)CC[C@H](NC(=O)c1ccc(NCc2cnc3nc(N)[nH]c(=O)c3n2)cc1)C(=O)O)C(=O)O)NC(=O)CC[C@H](NC(=O)c1ccc(NCc2cnc3nc(N)nc(N)c3n2)cc1)C(=O)O [EC2319]
[1]; rat plasma, EC2319 dosed SC 500 nmol/kg
  AUC(0-inf): 1.02 µM·h
[2]; 37° C.
  magnitude of aminopterin release: lower than that from EC1669
[2]
  pH dependence of aminopterin release from the conjugate: highest at pH 4.5
[3]
  aminopterin release: aminopterin release was observed
[4]
  aminopterin release: aminopterin release was observed
[5]
  plasma protein binding: higher plasma protein binding than did EC1669
